Experimental findings from IntAct's records for PubMed 31515488 are described below.

B1: Peroxisomal bifunctional enzyme (Homo sapiens), Q08426 (parent)
chain: MAEYTRLHNALALIRLRNPPVNAISTTLLRDIKEGLQKAVIDHTIKAIVICGAEGKFSAGADIRGFSAPRTFGLTLGHVVDEIQRNEKPVVAAIQGMAFGGGLELALGCHYRIAHAEAQVGLPEVTLGLLPGARGTQLLPRLTGVPAALDLITSGRRILADEALKLGILDKVVNSDPVEEAIRFAQRVSDQPLESRRLCNKPIQSLPNMDSIFSEALLKMRRQHPGCLAQEACVRAVQAAVQYPYEVGIKKEEELFLYLLQSGQARALQYAFFAERKANKWSTPSGASWKTASARPVSSVGVVGLGTMGRGIVISFARARIPVIAVDSDKNQLATANKMITSVLEKEASKMQQSGHPWSGPKPRLTSSVKELGGVDLVIEAVFEEMSLKKQVFAELSAVCKPEAFLCTNTSALDVDEIASSTDRPHLVIGTHFFSPAHVMKLLEVIPSQYSSPTTIATVMNLSKKIKKIGVVVGNCFGFVGNRMLNPYYNQAYFLLEEGSKPEEVDQVLEEFGFKMGPFRVSDLAGLDVGWKSRKGQGLTGPTLLPGTPARKRGNRRYCPIPDVLCELGRFGQKTGKGWYQYDKPLGRIHKPDPWLSKFLSRYRKTHHIEPRTISQDEILERCLYSLINEAFRILGEGIAASPEHIDVVYLHGYGWPRHKGGPMFYASTVGLPTVLEKLQKYYRQNPDIPQLEPSDYLKKLASQGNPPLKEWQSLAGSPSSKL
partner: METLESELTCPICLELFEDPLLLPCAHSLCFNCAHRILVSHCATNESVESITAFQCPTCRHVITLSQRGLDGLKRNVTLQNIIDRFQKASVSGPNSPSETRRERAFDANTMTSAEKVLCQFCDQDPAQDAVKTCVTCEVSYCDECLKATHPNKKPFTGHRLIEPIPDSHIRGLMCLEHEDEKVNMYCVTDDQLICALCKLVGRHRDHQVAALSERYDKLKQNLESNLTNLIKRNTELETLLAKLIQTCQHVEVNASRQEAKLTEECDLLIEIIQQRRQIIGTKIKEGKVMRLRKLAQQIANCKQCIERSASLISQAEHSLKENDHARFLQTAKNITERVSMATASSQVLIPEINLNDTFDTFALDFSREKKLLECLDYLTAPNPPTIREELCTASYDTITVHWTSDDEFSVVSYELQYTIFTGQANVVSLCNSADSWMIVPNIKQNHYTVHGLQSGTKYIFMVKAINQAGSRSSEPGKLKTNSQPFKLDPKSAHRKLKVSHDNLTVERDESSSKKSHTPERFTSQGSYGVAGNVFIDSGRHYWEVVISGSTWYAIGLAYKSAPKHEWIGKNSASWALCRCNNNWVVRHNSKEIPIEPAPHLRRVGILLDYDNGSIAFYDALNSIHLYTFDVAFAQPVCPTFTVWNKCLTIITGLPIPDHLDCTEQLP
B2: MTRF1L release factor glutamine methyltransferase (Homo sapiens), Q9Y5R4 (parent)
chain: MELWGRMLWALLSGPGRRGSTRGWAFSSWQPQPPLAGLSSAIELVSHWTGVFEKRGIPEARESSEYIVAHVLGAKTFQSLRPALWTQPLTSQQLQCIRELSSRRLQRMPVQYILGEWDFQGLSLRMVPPVFIPRPETEELVEWVLEEVAQRSHAVGSPGSPLILEVGCGSGAISLSLLSQLPQSRVIAVDKREAAISLTHENAQRLRLQDRIWIIHLDMTSERSWTHLPWGPMDLIVSNPPYVFHQDMEQLAPEIRSYEDPAALDGGEEGMDIITHILALAPRLLKDSGSIFLEVDPRHPELVSSWLQSRPDLYLNLVAVRRDFCGRPRFLHIRRSGP
partner: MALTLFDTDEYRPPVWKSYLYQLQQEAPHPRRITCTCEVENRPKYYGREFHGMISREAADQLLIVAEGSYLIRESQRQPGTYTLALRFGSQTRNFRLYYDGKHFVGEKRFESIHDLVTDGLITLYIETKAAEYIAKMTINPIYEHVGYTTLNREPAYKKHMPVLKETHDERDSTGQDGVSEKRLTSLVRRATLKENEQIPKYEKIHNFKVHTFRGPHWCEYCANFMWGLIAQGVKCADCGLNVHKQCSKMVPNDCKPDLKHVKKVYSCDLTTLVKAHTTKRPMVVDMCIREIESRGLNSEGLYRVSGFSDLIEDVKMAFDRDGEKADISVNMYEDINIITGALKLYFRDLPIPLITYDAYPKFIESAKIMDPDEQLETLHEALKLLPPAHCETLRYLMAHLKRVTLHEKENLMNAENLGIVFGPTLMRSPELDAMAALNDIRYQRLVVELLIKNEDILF
B3: Protein LDOC1 (Homo sapiens), O95751 (parent)
chain: MVDELVLLLHALLMRHRALSIENSQLMEQLRLLVCERASLLRQVRPPSCPVPFPETFNGESSRLPEFIVQTASYMLVNENRFCNDAMKVAFLISLLTGEAEEWVVPYIEMDSPILGDYRAFLDEMKQCFGWDDDEDDDDEEEEDDY
partner: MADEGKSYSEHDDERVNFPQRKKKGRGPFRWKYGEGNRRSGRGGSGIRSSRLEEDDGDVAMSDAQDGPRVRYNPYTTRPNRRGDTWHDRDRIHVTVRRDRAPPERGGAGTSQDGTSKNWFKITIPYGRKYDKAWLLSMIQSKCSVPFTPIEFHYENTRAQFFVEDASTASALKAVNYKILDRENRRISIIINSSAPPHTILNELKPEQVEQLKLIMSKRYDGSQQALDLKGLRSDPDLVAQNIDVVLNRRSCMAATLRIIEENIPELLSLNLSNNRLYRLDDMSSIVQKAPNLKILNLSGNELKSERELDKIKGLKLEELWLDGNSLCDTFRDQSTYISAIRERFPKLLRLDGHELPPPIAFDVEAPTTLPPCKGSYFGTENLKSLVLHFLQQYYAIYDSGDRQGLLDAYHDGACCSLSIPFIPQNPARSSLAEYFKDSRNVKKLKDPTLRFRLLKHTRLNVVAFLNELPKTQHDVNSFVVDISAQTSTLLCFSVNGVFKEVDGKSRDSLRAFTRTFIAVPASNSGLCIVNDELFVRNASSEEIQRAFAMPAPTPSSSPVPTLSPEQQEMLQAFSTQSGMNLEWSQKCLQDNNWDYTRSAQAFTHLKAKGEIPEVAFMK
B4: Low-density lipoprotein receptor class A domain-containing protein 1 (Homo sapiens), Q5T700 (parent)
chain: MNKVFPQGENGYTAAESKAHPGGEAGGGHLCCSRRGACLSASLLLLLATVAALIALVTILGLPSCTPGAQACITLTNRTGFLCHDQRSCIPASGVCDGVRTCTHGEDEDESLCRDVPQSLPHFLVAHCGDPASWIYSDQKCDGTNNCGDCSDELSPVTVCPPCGPGWWRCPSTFFKYCDCIPRHLCRDHVQHCSDWSDEYACPGP

In one assay the parent is B1. Particulars: with tri18_human MID1, O15344.
Turning to I646T, the “effect of a mutation on the interaction” value is recorded as “disrupting interaction strength”.
Still for that read-out and setting: the entry for L715S is “with no effect”; for R556G it is “with no effect”.

Another assay covers variants of B2. Particulars: with chin_human CHN1, P15882.
H200Q: the “effect of a mutation on the interaction” value is on record as “disrupting interaction strength”.

The variants in the next assay derive from B3. Particulars: with nxf1_human NXF1, Q9UBU9.
Consider L12H, for which the “effect of a mutation on the interaction” value is on record as “disrupting interaction strength”.

A further assay covers variants of B4. Particulars: with mall_human MALL.
In the case of S42F, the “effect of a mutation on the interaction” value is “with no effect”.

The variants in a further assay derive from B4. Particulars: with olfm4_human OLFM4, Q6UX06.
olfm4_human OLFM4, Q6UX06, sequence (Q6UX06 whole entry): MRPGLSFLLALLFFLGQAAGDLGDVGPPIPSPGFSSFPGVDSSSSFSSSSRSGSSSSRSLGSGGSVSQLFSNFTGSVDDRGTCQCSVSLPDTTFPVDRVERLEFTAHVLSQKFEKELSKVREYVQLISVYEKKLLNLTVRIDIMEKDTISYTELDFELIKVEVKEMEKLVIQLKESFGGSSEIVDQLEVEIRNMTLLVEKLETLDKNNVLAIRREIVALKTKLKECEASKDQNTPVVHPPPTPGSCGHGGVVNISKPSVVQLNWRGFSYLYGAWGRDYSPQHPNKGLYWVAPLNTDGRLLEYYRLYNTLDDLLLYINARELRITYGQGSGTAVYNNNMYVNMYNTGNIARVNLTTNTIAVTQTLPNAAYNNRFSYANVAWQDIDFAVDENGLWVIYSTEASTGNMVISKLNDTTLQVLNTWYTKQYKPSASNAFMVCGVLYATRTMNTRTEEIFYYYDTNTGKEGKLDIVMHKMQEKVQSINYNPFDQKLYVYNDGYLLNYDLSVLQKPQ
On to S42F, for which the “effect of a mutation on the interaction” value is on record as “with no effect”.

Variants of B4 are the subject of another assay. Particulars: with tm190_human TMEM190, Q8WZ59.
tm190_human TMEM190, Q8WZ59, sequence (Q8WZ59 whole entry): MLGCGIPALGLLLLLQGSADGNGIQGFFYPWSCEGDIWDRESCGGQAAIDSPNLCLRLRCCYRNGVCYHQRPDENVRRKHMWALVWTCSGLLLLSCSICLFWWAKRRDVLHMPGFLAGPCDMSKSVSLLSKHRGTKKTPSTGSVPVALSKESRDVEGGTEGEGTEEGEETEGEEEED
Regarding E108K, the “effect of a mutation on the interaction” value is “with no effect”.

In the next assay the parent is B4. Particulars: with tm218_human TMEM218, A2RU14.
tm218_human TMEM218, A2RU14, sequence (A2RU14 whole entry): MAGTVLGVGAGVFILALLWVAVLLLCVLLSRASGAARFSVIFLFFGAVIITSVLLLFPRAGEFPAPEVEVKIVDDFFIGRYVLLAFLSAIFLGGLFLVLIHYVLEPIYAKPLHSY
Regarding E108K, the “effect of a mutation on the interaction” value is recorded as “with no effect”.

The variants in the next assay derive from B4. Particulars: with bni3l_human BNIP3L.
In the case of E108K, the “effect of a mutation on the interaction” value is “with no effect”.

Variants of B4 are the subject of a further assay. Particulars: with tm147_human TMEM147, Q9BVK8.
tm147_human TMEM147, Q9BVK8, sequence (Q9BVK8 whole entry): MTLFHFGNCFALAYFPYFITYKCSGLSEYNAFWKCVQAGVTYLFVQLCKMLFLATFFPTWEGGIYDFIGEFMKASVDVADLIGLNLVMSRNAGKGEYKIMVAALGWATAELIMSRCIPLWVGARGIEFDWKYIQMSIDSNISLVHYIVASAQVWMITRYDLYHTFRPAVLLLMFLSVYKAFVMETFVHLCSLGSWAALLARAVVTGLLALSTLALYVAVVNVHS
Turning to E108K, the “effect of a mutation on the interaction” value was “with no effect”.

The variants in the next assay derive from B4. Particulars: with mal_human MAL.
E108K: the “effect of a mutation on the interaction” value is given as “with no effect”.
